The values that follow come from KR20200072008A (dated 2020).

For this test, the target named is SNAP25 197 from lysate of BoNT/A treated N2-42F cells (mouse, UniProt P60879 1-197). Put plainly: sandwich ELISA; detection of captured SNAP25 197 from N2-42F lysate.
Sequence of SNAP25 197 from lysate of BoNT/A treated N2-42F cells (P60879 1-197 limits assumed): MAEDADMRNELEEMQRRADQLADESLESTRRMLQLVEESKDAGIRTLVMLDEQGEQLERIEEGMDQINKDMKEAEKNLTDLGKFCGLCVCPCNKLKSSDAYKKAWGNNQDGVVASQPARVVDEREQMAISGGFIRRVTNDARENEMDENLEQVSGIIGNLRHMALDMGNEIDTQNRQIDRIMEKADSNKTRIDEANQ

B1: C16 IgG-HRP 접합체 (antibody, V domains shown)
VH: EVQLQQSGAELARPGASVQMSCKAFGYTFTNYTMHWVRQRPGQGLEWIGFINPSSDYTNYNQKFKDKATLSADKSSSTAYMQLSSLTSEDSAVYYCARRIFYNGRTYAAMDYWGQGTSVTVSS
VL: DIVMTQSPASLAVSLGQRATISCRASKSVSSSGYSYMHWYQQKPGQPPKLLIYLASNLESGVPARFSGSGSGTDFTLNIHPVEEEDAATYYCQHSRELPLTFGAGTKLELK
B1: the binding result was “binds”.
